Reference: the DeepSol protein solubility set

Assay: soluble on expression in E. coli; label from the status in PepcDB or PDB records

With “TMLCVLTTDAAAEPAALERALRRAAAATFDRLDIDGSCSTNDTVLLLSSGASEIPPAQADLDEAVLRVCDDLCAQLQADAEGVTKRVTVTVTGAATEDDALVAARQIARDSLVKTALFGSDPNWGRVLAAVGMAPITLDPDRISVSFNGAAVCVHGVGAPGAREVDLSDADIDITVDLGVGDGQARIRTTDLSHAYVEENSAYSS” as the sequence, how does the “soluble on expression in E. coli” value read?
The value was “soluble”.

For “MGSDKIHHHHHHMTSREEFLEKLAQAGTLNLIFQLTDQCALSCRYCFAKGSHPSGGLRIADDLLDAAIRSAFDTRHHQVSFEWTGGEPFFAGIDFYRKVDRLQKKYATKPYANTIQTSGYVHDRELIAWLAGHGFRISSTIDGPPELHDFQRPVNGGGPSLGAVLATRETIIEHQGHCGCICTVTRNSLGKEGAILDYYRSLGIEAFHSNPYYYFSKNLVGDESLALDADGYAAYFIAQFNAWFEGGRKLPMPGTLNYILRSLTAGAGLKQSVCTFGGRCLTNFLAITPDGDAWLCPKFAGFDEMRLGNVGKMAITDILSDANPAMARLIDERLDAIHTCEADECRFQYLCNAGCPYYSFIASGGRNIAVKDSLCTGKQLLFEYLESVVELIDPARLPEPSPLEHA”, which “soluble on expression in E. coli” value is on record?
Its value is “not soluble”.

Which “soluble on expression in E. coli” value does the source give for “MKEKIPFYNEKEFHDMMKKTKKGTFSGWYIIDKDNKSVEFSGNFNRQFKLNKPVIPVNTEYVTRKEFNEYKDSNDQRLTKIETTLAAQGEQIRIQGEQIKELQIEQKAQGETLKLILQTLQKMSDRLNKMDVRLDKLESKLEHHHHHH” here?
Its value is “not soluble”.

With “MRIRRRDEKENQEYKKGLWTVEEDNILMDYVLNHGTGQWNRIVRKTGLKRCGKSCRLRWMNYLSPNVNKGNFTEQEEDLIIRLHKLLGNRWSLIAKRVPGRTDNQVKNYWNTHLSKKLVGDYSSAVKTTGEDDDSPPSLFITAATPSSCHHQQENIYENIAKSFNGVVSASYEDKPKQELAQKDVLMATTNDPSHYYGNNALWVHDDDFELSSLVMMNFASGDVEYCL” as the sequence, how does the “soluble on expression in E. coli” value read?
Its value is “not soluble”.

Which “soluble on expression in E. coli” value does the source give for “MSLSAYAELHCLSNFSFQRGASSAAELFQRAKALGYQALAITDECTLAGIVRAWQASRDTGLKLIVGSEMQVEDGPRLVLLVEDLAGYQGLCRLITRARRRAEKGSYRLLREDFAEPLPGLLALWLTGAGEPLAQGRWLQQVFPQRLWLALELHCGQDDARHLQQQLALARQLGLPAVACGDVHMHVRGRRALQDTMTAIRHHLPVAEAGQRLFANGERHLRPVEVLQGLYPQALLDESLAIAGRCAFDLGQLRYQYPRELVPEGHDAGSWLRVLTQRGIVRRWPTGARAEVLKQIDKELTLICDLGYESYFLTVHDIVDFARRQHILCQGRGSAANSVVCFALGITEIDPDRSTLLFERFLSRERNEPPDIDVDFEHERREEVLQYLFQRYGRHRAALTAVVSTYHGAGAVRDVAKALGLPPDQVNALADCCGHWSDTPPSVERLQEAGFDPQSPVLRRVLSLTGQLIGFPRHLSQHPGGFVISEQPLDHLVPVENATMAERTVIQWDKDDLDMVGLLKVDILALGMLSAIRRCFDLIHGYRGQRYSLASIPPEDPATYEMIGRADTIGVFQIESRAQMSMLPRLKPQNFYDLVIEVAIVRPGPIQGGMVHPYLRRRNRQEPETYPSPELEGVLKRTLGVPLFQEQVMQIAIVAADYTPGEADQLRRSMAAWKRHGGLEPHRERLRRGMNRNGYSDEFATQIFEQIKGFGSYGFPESHAASFALLTYASCWLKCHEPAAFACALINSWPMGFYSPDQILQDARRHGLQVLAVDVGASDWDCSLEPIPVQPARAGNGPPGQPALRLGLRMIKGFREDDARRIERARRQRAFVDIADLGERARLDVRAQELLADAGALQALAGDRYRARWEVAGVERQLGLFAEGHHHHHH” here?
Its value is “soluble”.

Which “soluble on expression in E. coli” value does the source give for “MGSDKIHHHHHHMSNFGRQIEAFRAVMLTGGMTTAAETLRITQPAISRLIRDLEDDLKIALFHRRGNQITPTVEATAFLAEVERSYLGMDQLRTFAVDLRNSLTGSLRIAALPAMALGFMPYCLAKFSGTRPKLSITLDGIPSHLVLERVAGGQFELGFAAVPADRPMLNTTPIKARAVVVMPEGHPLAKNETVSADQLRNERIVMLDRGNYLRHTIERALGTRAGSPGAIETPLSAIACSFVARGLGVTIIDAFTAINFLGRGIEARLLVPELDFGFAMVTAQQRPMSQLARQFAQEIHLLAEEYQSPIFG” here?
Its value is “not soluble”.

For “MGSDKIHHHHHHMKYLVSIDGGGTKTKFCVSDLDGNILKEHTTGSTNYKSVGIKKTYENINNGFKKILKDLYIDYDDIEYTVFGISGCDSPNDYKIIMDEILKIGINKEKIYLANDAVLAFYAQADSPGLVIVAGTGSIILGIKEDGEIYRVGGWGYNFSDLGSGYDIGRKLLKKVLLYCDECHEYSDLFSCVLDFFGANSFEQLAYMITDINDNVEIANLASLVIDCAEQGDKLAIEILRESSTELSKLAQVILRKISNPMKMDKSEINIVLSGGTLNKTVYVQMLMNNLKTENTDKNLKFISQENQPVYGGIRLAMALANRRVKHG”, which “soluble on expression in E. coli” value is on record?
Its value is “not soluble”.

For “MRRIITMTVNNRPGVLNRITGLFTKRHYNIESITVGHTEIEGISRMTFVVNVDDERTAEQIIKQLNKQIDVLKVNDITDQAIVARELALIKVAAPPAVRQEIYTLIEPFRASIVDVSKDSLVIQVTGEPEKVEALIELLRPYGIKEVARTGTTAFTRGAQKATTNQKTAFII”, which “soluble on expression in E. coli” value is on record?
The value was “not soluble”.

For “MAQTVPYGIPLIKADKVQAQGFKGANVKVAVLDTGIQASHPDLNVVGGASFVAGEAYNTDGNGHGTHVAGTVAALDNTTGVLGVAPSVSLYAVKVLNSSGSGSYSGIVSGIEWATTNGMDVINMSLGGASGSTAMKQAVDNAYARGVVVVAAAGNSGNSGSTNTIGYPAKYDSVIAVGAVDSNSNRASFSSVGAELEVMAPGAGVYSTYPTNTYATLNGTSMASPHVAGAAALILSKHPNLSASQVRNRLSSTATYLGSSFYYGKGLINVEAAAQ”, which “soluble on expression in E. coli” value is on record?
Its value is “soluble”.

For “SMPVRRVRVVKQEAGGLGISIKGGRENRMPILISKIFPGLAADQSRALRLGDAILSVNGTDLRQATHDQAVQALKRAGKEVLLEVKFIREVNTVV”, which “soluble on expression in E. coli” value is on record?
The value was “soluble”.

With “MHMNAEEIGMALLNGRKELGLRQGELADLAGVSERFIRDVEKGKTTVRLDKVIDVLRVLGLELSVGIHDPLKVNQ” as the sequence, how does the “soluble on expression in E. coli” value read?
The value was “not soluble”.

For “MSLFPAELMVVRKAQDGTIRPLMIAPDHVDIAEKVIEIYRSSAGRTRKEISKDIVTIEYGIKNPKIVRGLALIMDRMSTFRNRSRVDSKQLRGFLFQMGPAVSPEERQEKIALAAEHFSVSPQDIEEAIYGDMDSENVLDQCPSITPEHLNRRYNLEQLTTLMYRSKFIEVSGINNWYRFISLIKRQGLVFEAQGNPLMSVRIDGPNSVFNNMERYGSSMARVVERLTAFPGWKLHAEVEIKDRVYSVDLDSSISYYLPETDIEEEEAIPDPVVIGTRVFFPTRIINVHGQDVYVDIVYHMSPEAIKRRDEMIRSSGIKWITAVVGECKKFQGVLCFRNRVDWDAIIAKASEEYPATTDALREEIDRLYPNTEAILDLLDSRSIPLSHLEKIGYRIKWNGILPEIVRSTEGHHHHHH”, which “soluble on expression in E. coli” value is on record?
Its value is “soluble”.

Which “soluble on expression in E. coli” value does the source give for “AVVETAAMFDGTEGTLGRSMTLEDMELMTWAIFQSGQKIPAKVYSKILAQWDLYSYQMAVFHEAYDILLTPTVADVTPKHGQFALSESLQNQLKQIAYFDWPKQQELIWAMFADSLDWTSFTQRANLTGQPSISLPIYRNADGLSLGVQLTSAKGREDLLLLLAKQMEE” here?
Its value is “not soluble”.

With “MKILAISDPHGDYSKMKQIIEKAGDFDLAVVVGDITNFGPDEQVDELAEMFDKPVLAIPGNCDQKTILEALENSKAVNLHGKAEQIGKIRFIGLGGSNPTPFNTPFELSEEEIENALEGMVCSAENSGECGTIVLLTHAPPLGARDELPFGHVGSKAIQKFLDRVDLIVCGHIHEAKGSEKVGKTVVVNPGEACKGSCALIEIEETGNKPIEVEFVEVLEHHHHHH” as the sequence, how does the “soluble on expression in E. coli” value read?
The value was “not soluble”.

For “MAQPIVVAALYKFVTLEDYVNLREPLLQAMLDNGIKGTLLIAEEGINGTVSGSREGIDGLLAWLKNDPRMVDIDHKESYCDEQPFYRTKVKLKKEIVTLGVPGVDPNKKVGTYVEPQDWNALISDPEVLLIDTRNDYEVSIGTFEGAIDPKTTSFREFPDYIKAHFDPSKHKKVAMFCTGGIRCEKASSYMLSEGFDEVFHLKGGILKYLEEVPQQESKWQGDCFVFDNRVTVRHDLSEGDYDQCHACRTPVSVEDRASEHYVPGISCPHCWDKLSEKTRRSAIDRQKQIELAKARNMPHPIGYNYKQSSSEALEHHHHHH”, which “soluble on expression in E. coli” value is on record?
Its value is “not soluble”.

For “SFRFMRDVEPEDPMFLMDPFAIHRQHMSRMLSGGFGYSPFLSITDGNMPGTRPASRRMQQAGAVSPFGMLGMSGGFMDMFGMMNDMIGNMEHMTAGGNCQTFSSSTVISYSNTGDGAPKVYQETSEMRSAPGGIRETRRTVRDSDSGLEQMSIGHHIRDRAHILQRSRNHRTGDQEERQDYINLDESEAAAFDDEWRRETSRFRQQRPLEFRRLESSGAGGRRAEGPPRLAIQGPEDSPSRQSRRYDW”, which “soluble on expression in E. coli” value is on record?
Its value is “soluble”.

With “MSSQDVLIHSDDPCHPANLICTLCKQFFHNNWCTGTGGGISIKDPNTNYYYLAPSGVQKEKMIPEDLFVMDAQTLEYLRSPKLYKPSACTPLFLACYQKKNAGAIIHTHSQNAVICSLLFGDEFRIANIEQIKAIPSGKVDPVTKKPMALSFFDTLKIPIIENMAHEDELIDDLHKTFKDYPDTCAVIVRRHGIFVWGPTIDKAKIFNEAIDYLMELAIKMYQMGIPPDCGIGEEKKHLKMASP” as the sequence, how does the “soluble on expression in E. coli” value read?
Its value is “soluble”.

For “MGSDKIHHHHHHMNKLKIGTSGWVYKHWMDIFYPPNLPSDQQLSFYAQHFATVEINFSFYRLPERSVFETWHKQTPSNFLFAVKGSRYLTHMKKLKDPIEPLSRIMERASGLQEKLGPILFQFPHTWHINIERLQPFLELLQTYPKQKFTVEFRHSSWLIPQVYQLLETAGVGLCLPVSPTVPLDICLTAPWTYIRMHSGQWNVGYTDEELSTWVERIRSFLMQEIDVYVYFNNDPDGNAIRDAQRLYCLLGSC”, which “soluble on expression in E. coli” value is on record?
The value was “not soluble”.

For “MADIQGEDLESLYGYAKQLFDGGEIAAARNVYQLLSTLDHWNFDYLLALGLCHQRLGAHNEAVVCFGRAGLIKVDDPRAAFYAGISYRLDGNAEYASKAFKAAINWCGEQIDYQAIKASAVDMLALQQEEVPLEHHHHHH”, which “soluble on expression in E. coli” value is on record?
The value was “soluble”.

For “SMCEKVISVGQTVITKHRNTRYYSCRVMAVTSQTFYEVMFDDGSFSRDTFPEDIVSRDCLKLGPPAEGEVVQVKWPDGKLYGAKYFGSNIAHMYQVEFEDGSQIAMKREDIYTLDEELPKRVK”, which “soluble on expression in E. coli” value is on record?
The value was “soluble”.

With “MAGDPMRVEVGQIVNTHGIKGEIKVKSNSDFTDVRFQPGQVLTVVHNNNDLEYTVKSHRVHKGLHMLTFEGINNINDIEHLKGSSIYQERDHEDIVLEENEFYYSDIIGCTVFDDQETPIGRVINIFETGANDVWVIKGSKEYLIPYIADVVKEVDVENKKIIITPMEGLLDLEHHHHHH” as the sequence, how does the “soluble on expression in E. coli” value read?
Its value is “soluble”.

For “DSLGWSNVDVLDRICEAYGFSQKIQLANHFDIASSSLSNRYTRGAISYDFAAHCALETGANLQWLLTGEGEAFVNNRESSDAKRIEGFTLSEEILKSDKQLSVDAQFFTKPLTDGMAIRSEGKIYFVDKQASLSDGLWLVDIKGAISIRELTKLPGRKLHVAGGKVPFECGIDDIKTLGRVVGVYSEVN”, which “soluble on expression in E. coli” value is on record?
The value was “soluble”.

With “AQGQTVYFHAWGGSQEINHYLQWANKELQSKYQVTLKHVKVSDISETIPRLIAEKAADKNTNGSVDMVWINGENFKSMKDNQLLFGPFTENLPSWKYVDKMLPIDVDFSEPTDGLEAPWGVGQLVFIHDSENLTNPPHSFAEMLSYAQKKPNSLSYPRPPEFHGTSVLKSMLIELTNNNPALQKPVSESDFNAVTAPLWDYLEKFHKVAWRGGKQFPAGTSETIQLLDDGQLDLAVTFNPNAVYSAQANGNLANTTKAYAMDSGALSNIHFLAIPWNAKASAGAQVAINFLLSPEAQSRKGDLNVWGDPSVLSSKYLTGSAKNTQQFKSVSEPHPSWQAAIEKEWLKRFGS” as the sequence, how does the “soluble on expression in E. coli” value read?
Its value is “not soluble”.
